Experimental data: the supplement of paper PMC9428881
± gives the standard error.

Test: background-corrected fluorescence of 3'-dye-labeled ssDNA relative to brightest sequence (3'-GCGCG) (fraction); higher = brighter dye fluorescence (less quenching)
Method in brief: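 Single-stranded DNA was built on glass slides by light-directed phosphoramidite synthesis, ending in a 3' Cy3 or Cy5 dye beside each of 1024 permuted pentamers. Arrays were washed in acetonitrile for 2 h at r.t., then scanned at 532 or 635 nm before and after overnight ethylenediamine/ethanol deprotection. Each value averages 10 features per array and at least 3 syntheses. Fluorescence, corrected by subtracting unlabeled-oligo background, is scaled to the brightest sequence.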

Sequence	background-corrected fluorescence (dye: Cy3 (3' terminal))	background-corrected fluorescence (dye: Cy5 (3' terminal))
TTTTTTGAGCATCATGAGCATTTTTTTTTTTTTTTCTGCT [TCGTC]	0.492 ± 0.021	0.39 ± 0.049
TTTTTTGCTGCTGATCATGCTTTTTTTTTTTTTTTAACGA [AGCAA]	0.613 ± 0.0098	0.519 ± 0.07
TTTTTTGCTGCTCAGCATGCTTTTTTTTTTTTTTTAAGTA [ATGAA]	0.591 ± 0.019	0.493 ± 0.074
TTTTTGCATGATGCTGATCATTTTTTTTTTTTTTTTCACG [GCACT]	0.491 ± 0.03	0.399 ± 0.022
TTTTTGCATCATCATGCTGATTTTTTTTTTTTTTTTGGAC [CAGGT]	0.5012 ± 0.0043	0.404 ± 0.046
TTTTTTCATCATCATGCGCATTTTTTTTTTTTTTTGGGAT [TAGGG]	0.617 ± 0.027	0.506 ± 0.024
TTTTTTGATGATGCTGCTCATTTTTTTTTTTTTTTCCAAG [GAACC]	0.521 ± 0.029	0.384 ± 0.029
TTTTTTCAGCATCATCATCATTTTTTTTTTTTTTTGTGGG [GGGTG]	0.717 ± 0.024	0.586 ± 0.041
TTTTTGCATCATGCGCATGCTTTTTTTTTTTTTTTTGATA [ATAGT]	0.555 ± 0.039	0.481 ± 0.032
TTTTTTGATCATGCGCAGCATTTTTTTTTTTTTTTCGATT [TTAGC]	0.602 ± 0.031	0.404 ± 0.025
TTTTTTCAGCATGAGCATGATTTTTTTTTTTTTTTGTCTC [CTCTG]	0.393 ± 0.034	0.33 ± 0.043
TTTTTGCAGCATGATCAGCATTTTTTTTTTTTTTTTTCGT [TGCTT]	0.564 ± 0.013	0.432 ± 0.025
TTTTTTCATGATGCTGAGCATTTTTTTTTTTTTTTGCACT [TCACG]	0.482 ± 0.048	0.339 ± 0.024
TTTTTTGCTCATGCTGCTGATTTTTTTTTTTTTTTAGAAC [CAAGA]	0.485 ± 0.022	0.358 ± 0.022
TTTTTTCAGCATCAGCATGATTTTTTTTTTTTTTTGTGTC [CTGTG]	0.4591 ± 0.0035	0.356 ± 0.068
TTTTTTGAGCATGCGCATGATTTTTTTTTTTTTTTCTATC	0.373 ± 0.025	0.309 ± 0.018
TTTTTTGCTGAGCATGCTGATTTTTTTTTTTTTTTACTAC [CATCA]	0.477 ± 0.017	0.328 ± 0.035
TTTTTTGCTCATGATGCTCATTTTTTTTTTTTTTTAGCAG [GACGA]	0.574 ± 0.018	0.42 ± 0.02
TTTTTTGCTGATCATCATCATTTTTTTTTTTTTTTACGGG [GGGCA]	0.6553 ± 0.0063	0.579 ± 0.05
TTTTTGCAGCAGCAGCATGATTTTTTTTTTTTTTTTTTTC [CTTTT]	0.373 ± 0.032	0.257 ± 0.015
TTTTTGCATGCTCATGATCATTTTTTTTTTTTTTTTAGCG [GCGAT]	0.658 ± 0.008	0.494 ± 0.055
TTTTTTGCGCATGCTGATGATTTTTTTTTTTTTTTATACC [CCATA]	0.411 ± 0.027	0.295 ± 0.018
TTTTTTGATCAGCATCATGCTTTTTTTTTTTTTTTCGTGA [AGTGC]	0.634 ± 0.016	0.531 ± 0.037
TTTTTTGCGCATGATGATGATTTTTTTTTTTTTTTATCCC [CCCTA]	0.369 ± 0.026	0.247 ± 0.016
TTTTTGCATCATCATCATGCTTTTTTTTTTTTTTTTGGGA [AGGGT]	0.757 ± 0.01	0.725 ± 0.054
